Test results as given in publication PMC9482650, “Quantitative fragmentomics allow affinity mapping of interactomes” (Nature Communications, 2022).

Columns and labels:
Experiment in all cases: holdup assay
Parameters in all cases: key: below the threshold = too weak to quantify, mostly under pKd 3.1 to 4
HTRA4, P83105 = molecular target: T1, HTRA4, P83105
T1 sequence (P83105 378-476, limits assumed, looked up): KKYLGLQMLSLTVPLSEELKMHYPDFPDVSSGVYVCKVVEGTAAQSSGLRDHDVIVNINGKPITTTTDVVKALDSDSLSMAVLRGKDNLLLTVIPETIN

LNX1_3, Q8TBB1 = molecular target: LNX1_3, Q8TBB1
PDZRN3_1, Q9UPQ7 = molecular target: T2, PDZRN3_1, Q9UPQ7
T2 sequence (Q9UPQ7 244-349, limits assumed, looked up): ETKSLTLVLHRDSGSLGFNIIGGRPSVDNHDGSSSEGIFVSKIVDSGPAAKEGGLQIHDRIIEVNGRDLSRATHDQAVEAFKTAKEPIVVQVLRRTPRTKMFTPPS

HTRA1, Q92743 = molecular target: HTRA1, Q92743
RADIL, Q96JH8 = molecular target: T3, RADIL, Q96JH8
T3 sequence (Q96JH8 971-1071, limits assumed, looked up): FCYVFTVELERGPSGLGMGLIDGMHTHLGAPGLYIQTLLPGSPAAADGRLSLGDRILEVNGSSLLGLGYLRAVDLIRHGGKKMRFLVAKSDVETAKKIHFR

MPDZ_12, O75970 = molecular target: T4, MPDZ_12, O75970
T4 sequence (O75970 1857-1958, limits assumed, looked up): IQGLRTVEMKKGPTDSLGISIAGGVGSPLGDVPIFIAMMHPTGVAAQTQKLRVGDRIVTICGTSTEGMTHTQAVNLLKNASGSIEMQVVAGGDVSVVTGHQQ

SNTG1, Q9NSN8 = molecular target: T5, SNTG1, Q9NSN8
T5 sequence (Q9NSN8 52-150, limits assumed, looked up): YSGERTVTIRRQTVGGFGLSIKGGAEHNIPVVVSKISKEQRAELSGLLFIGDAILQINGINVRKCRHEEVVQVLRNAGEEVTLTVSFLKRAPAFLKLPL

IL16_3, Q14005 = molecular target: IL16_3, Q14005
LIMK2, P53671 = molecular target: LIMK2, P53671
FRMPD2_2, Q68DX3 = molecular target: FRMPD2_2, Q68DX3
PARD3_3, Q8TEW0 = molecular target: PARD3_3, Q8TEW0
PCLO, Q9Y6V0 = molecular target: T6, PCLO, Q9Y6V0
T6 sequence (Q9Y6V0 4491-4600, limits assumed, looked up): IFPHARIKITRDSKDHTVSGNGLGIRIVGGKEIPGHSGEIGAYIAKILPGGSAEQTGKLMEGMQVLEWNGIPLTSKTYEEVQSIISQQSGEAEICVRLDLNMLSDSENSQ

GORASP1, Q9BQQ3 = molecular target: GORASP1, Q9BQQ3
FRMPD4, Q14CM0 = molecular target: FRMPD4, Q14CM0
FRMPD2_1, Q68DX3 = molecular target: FRMPD2_1, Q68DX3
NHERF4_1, Q86UT5-2 = molecular target: NHERF4_1, Q86UT5-2
DLG5_1, Q8TDM6 = molecular target: DLG5_1, Q8TDM6
GRASP, Q7Z6J2 = molecular target: GRASP, Q7Z6J2
GRIP1_7, Q9Y3R0 = molecular target: T7, GRIP1_7, Q9Y3R0
T7 sequence (Q9Y3R0 999-1096, limits assumed, looked up): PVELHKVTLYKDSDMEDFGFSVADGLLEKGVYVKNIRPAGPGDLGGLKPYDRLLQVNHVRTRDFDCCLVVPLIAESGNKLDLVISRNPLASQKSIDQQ

LNX2_2, Q8N448 = molecular target: T8, LNX2_2, Q8N448
T8 sequence (Q8N448 334-432, limits assumed, looked up): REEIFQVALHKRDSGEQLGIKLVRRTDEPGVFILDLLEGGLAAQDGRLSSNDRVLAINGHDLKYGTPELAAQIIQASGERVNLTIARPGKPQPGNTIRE

SNTB1, Q13884 = molecular target: T9, SNTB1, Q13884
T9 sequence (Q13884 107-205, limits assumed, looked up): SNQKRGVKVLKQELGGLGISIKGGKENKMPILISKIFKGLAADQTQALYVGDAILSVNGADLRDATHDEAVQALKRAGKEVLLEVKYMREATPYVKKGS

HTRA3, P83110 = molecular target: T10, HTRA3, P83110
T10 sequence (P83110 354-453, limits assumed, looked up): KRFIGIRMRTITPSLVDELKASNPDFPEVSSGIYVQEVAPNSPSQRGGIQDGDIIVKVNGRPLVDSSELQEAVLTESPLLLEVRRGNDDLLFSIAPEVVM

Inadl_5, Q8NI35 = molecular target: Inadl_5, Q8NI35
Inadl_3, Q8NI35 = molecular target: Inadl_3, Q8NI35
MPP6, Q9NZW5 = molecular target: T11, MPP6, Q9NZW5
T11 sequence (Q9NZW5 125-219, limits assumed, looked up): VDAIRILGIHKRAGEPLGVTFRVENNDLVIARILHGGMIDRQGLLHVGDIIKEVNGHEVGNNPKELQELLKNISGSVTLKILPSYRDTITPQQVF

IL16_4, Q14005 = molecular target: IL16_4, Q14005
[1] = plain residues with an end cap or a label only (N-terminal biotin on a linker: ado-ado, ttds)
[2] = plain residues with an end cap or a label only (N-terminal biotin on a linker: ttds)

Inadl_3, Q8NI35, sequence (Q8NI35 359-469): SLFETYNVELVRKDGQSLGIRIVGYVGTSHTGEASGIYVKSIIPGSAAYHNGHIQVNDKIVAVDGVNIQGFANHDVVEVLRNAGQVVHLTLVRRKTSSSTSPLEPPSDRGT
NHERF4_1, Q86UT5-2, sequence (Q86UT5 other isoform, or with tags, fused parts or gaps): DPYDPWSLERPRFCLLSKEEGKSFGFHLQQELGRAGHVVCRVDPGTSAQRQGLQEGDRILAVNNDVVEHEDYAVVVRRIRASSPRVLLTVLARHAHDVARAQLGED
DLG5_1, Q8TDM6, sequence (Q8TDM6 617-713): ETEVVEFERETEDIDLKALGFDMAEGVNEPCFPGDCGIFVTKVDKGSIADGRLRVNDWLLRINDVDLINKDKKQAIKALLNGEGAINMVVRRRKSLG
GORASP1, Q9BQQ3, sequence (Q9BQQ3 1-208): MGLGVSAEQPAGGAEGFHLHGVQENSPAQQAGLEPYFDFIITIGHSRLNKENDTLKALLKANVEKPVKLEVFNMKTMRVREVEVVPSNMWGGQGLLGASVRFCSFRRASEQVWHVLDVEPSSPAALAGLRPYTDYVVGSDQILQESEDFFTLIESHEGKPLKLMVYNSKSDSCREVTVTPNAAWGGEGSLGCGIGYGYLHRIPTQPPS
FRMPD2_2, Q68DX3, sequence (Q68DX3 944-1038): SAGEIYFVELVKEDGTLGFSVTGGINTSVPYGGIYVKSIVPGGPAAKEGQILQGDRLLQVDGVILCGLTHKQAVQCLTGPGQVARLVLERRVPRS
FRMPD4, Q14CM0, sequence (Q14CM0 67-160): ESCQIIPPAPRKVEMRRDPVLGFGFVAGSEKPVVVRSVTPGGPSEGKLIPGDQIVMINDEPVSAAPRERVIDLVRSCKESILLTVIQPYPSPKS
FRMPD2_1, Q68DX3, sequence (Q68DX3 770-861): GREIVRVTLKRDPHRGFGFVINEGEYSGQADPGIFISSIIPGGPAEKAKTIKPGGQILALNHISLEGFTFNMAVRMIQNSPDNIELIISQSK
LNX1_3, Q8TBB1, sequence (Q8TBB1 500-596): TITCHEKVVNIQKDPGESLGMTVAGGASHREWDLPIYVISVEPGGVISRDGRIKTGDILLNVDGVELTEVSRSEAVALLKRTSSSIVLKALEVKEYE
PARD3_3, Q8TEW0, sequence (Q8TEW0 582-685): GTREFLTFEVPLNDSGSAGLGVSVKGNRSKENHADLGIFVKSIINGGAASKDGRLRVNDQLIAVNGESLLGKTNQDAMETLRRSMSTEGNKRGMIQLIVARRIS
GRASP, Q7Z6J2, sequence (Q7Z6J2 96-193): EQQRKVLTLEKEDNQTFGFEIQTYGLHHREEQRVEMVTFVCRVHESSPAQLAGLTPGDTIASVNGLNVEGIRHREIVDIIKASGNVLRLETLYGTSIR
LIMK2, P53671, sequence (P53671 143-248): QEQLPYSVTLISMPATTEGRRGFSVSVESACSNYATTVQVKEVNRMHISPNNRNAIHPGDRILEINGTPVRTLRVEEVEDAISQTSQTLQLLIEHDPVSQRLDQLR
IL16_3, Q14005, sequence (Q14005 1107-1207): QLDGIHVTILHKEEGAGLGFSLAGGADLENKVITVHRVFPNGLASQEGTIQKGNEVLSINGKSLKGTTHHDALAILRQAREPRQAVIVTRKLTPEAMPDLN
IL16_4, Q14005, sequence (Q14005 1229-1329): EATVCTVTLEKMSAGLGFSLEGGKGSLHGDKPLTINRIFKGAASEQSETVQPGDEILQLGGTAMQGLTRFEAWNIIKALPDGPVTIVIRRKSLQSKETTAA
Inadl_5, Q8NI35, sequence (Q8NI35 673-780): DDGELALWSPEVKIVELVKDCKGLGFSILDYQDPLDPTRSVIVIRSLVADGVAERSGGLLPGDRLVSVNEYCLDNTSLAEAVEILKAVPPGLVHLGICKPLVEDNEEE
HTRA1, Q92743, sequence (Q92743 360-477): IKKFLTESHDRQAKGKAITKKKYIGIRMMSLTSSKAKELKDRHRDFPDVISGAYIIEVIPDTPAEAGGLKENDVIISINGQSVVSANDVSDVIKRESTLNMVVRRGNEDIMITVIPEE

B1: KCNA4, P22459 (peptide)
chain: SNAKAVETDV
For B1, the pKd (HTRA4, P83105; [1]) was “below the threshold”, the pKd (LNX1_3, Q8TBB1; [1]) was “below the threshold” and the pKd (PDZRN3_1, Q9UPQ7; [1]) was “below the threshold”. The pKd (HTRA1, Q92743; [1]) was “below the threshold”, the pKd (RADIL, Q96JH8; [1]) was “below the threshold” and the pKd (MPDZ_12, O75970; [1]) was “below the threshold”. For the same binder, the pKd (SNTG1, Q9NSN8; [1]) was 4.89, the pKd (IL16_3, Q14005; [1]) was “below the threshold” and the pKd (LIMK2, P53671; [1]) was “below the threshold”. The pKd (FRMPD2_2, Q68DX3; [1]) was 3.52, the pKd (PARD3_3, Q8TEW0; [1]) was “below the threshold” and the pKd (PCLO, Q9Y6V0; [1]) was “below the threshold”. For the same binder, the pKd (GORASP1, Q9BQQ3; [1]) was “below the threshold”, the pKd (FRMPD4, Q14CM0; [1]) was “below the threshold” and the pKd (FRMPD2_1, Q68DX3; [1]) was “below the threshold”. The pKd (NHERF4_1, Q86UT5-2; [1]) was “below the threshold”, the pKd (DLG5_1, Q8TDM6; [1]) was “below the threshold” and the pKd (GRASP, Q7Z6J2; [1]) was “below the threshold”. For the same binder, the pKd (GRIP1_7, Q9Y3R0; [1]) was “below the threshold”, the pKd (LNX2_2, Q8N448; [1]) was 3.51 and the pKd (SNTB1, Q13884; [1]) was 4.71. For the same binder, the pKd (HTRA3, P83110; [1]) was “below the threshold”, the pKd (Inadl_5, Q8NI35; [1]) was “below the threshold” and the pKd (Inadl_3, Q8NI35; [1]) was 3.51. The pKd (MPP6, Q9NZW5; [1]) was “below the threshold” and the pKd (IL16_4, Q14005; [1]) was “below the threshold”.

B2: HPV82-E6, Q9IR59 (peptide)
chain: PPRQRSETQV
In the case of B2, the pKd (HTRA4, P83105; [2]) is reported as “below the threshold”, the pKd (LNX1_3, Q8TBB1; [2]) is reported as “below the threshold” and the pKd (PDZRN3_1, Q9UPQ7; [2]) is reported as 3.81. The pKd (HTRA1, Q92743; [2]) was “below the threshold”, the pKd (RADIL, Q96JH8; [2]) was 3.34 and the pKd (MPDZ_12, O75970; [2]) was “below the threshold”. For the same binder, the pKd (SNTG1, Q9NSN8; [2]) was 3.99, the pKd (IL16_3, Q14005; [2]) was “below the threshold” and the pKd (LIMK2, P53671; [2]) was “below the threshold”. The pKd (FRMPD2_2, Q68DX3; [2]) was “below the threshold”, the pKd (PARD3_3, Q8TEW0; [2]) was “below the threshold” and the pKd (PCLO, Q9Y6V0; [2]) was “below the threshold”. The pKd (GORASP1, Q9BQQ3; [2]) was “below the threshold”, the pKd (FRMPD4, Q14CM0; [2]) was “below the threshold” and the pKd (FRMPD2_1, Q68DX3; [2]) was 3.5. The pKd (NHERF4_1, Q86UT5-2; [2]) was “below the threshold”, the pKd (DLG5_1, Q8TDM6; [2]) was “below the threshold” and the pKd (GRASP, Q7Z6J2; [2]) was “below the threshold”. For the same binder, the pKd (GRIP1_7, Q9Y3R0; [2]) was “below the threshold”, the pKd (LNX2_2, Q8N448; [2]) was 3.73 and the pKd (SNTB1, Q13884; [2]) was 4.05. The pKd (HTRA3, P83110; [2]) was “below the threshold”, the pKd (Inadl_5, Q8NI35; [2]) was 3.31 and the pKd (Inadl_3, Q8NI35; [2]) was “below the threshold”. The pKd (MPP6, Q9NZW5; [2]) was “below the threshold” and the pKd (IL16_4, Q14005; [2]) was “below the threshold”.

B3: SLC15A5, A6NIM6 (peptide)
chain: SSIDLWETAL
With B3 the pKd (HTRA4, P83105; [2]) was “below the threshold”, the pKd (LNX1_3, Q8TBB1; [2]) was “below the threshold” and the pKd (PDZRN3_1, Q9UPQ7; [2]) was 5.87. The pKd (HTRA1, Q92743; [2]) was 4.25, the pKd (RADIL, Q96JH8; [2]) was 3.78 and the pKd (MPDZ_12, O75970; [2]) was “below the threshold”. The pKd (SNTG1, Q9NSN8; [2]) was 5.41, the pKd (IL16_3, Q14005; [2]) was “below the threshold” and the pKd (LIMK2, P53671; [2]) was “below the threshold”. The pKd (FRMPD2_2, Q68DX3; [2]) was 4.3, the pKd (PARD3_3, Q8TEW0; [2]) was 4.44 and the pKd (PCLO, Q9Y6V0; [2]) was “below the threshold”. For the same binder, the pKd (GORASP1, Q9BQQ3; [2]) was 4.02, the pKd (FRMPD4, Q14CM0; [2]) was 5.35 and the pKd (FRMPD2_1, Q68DX3; [2]) was “below the threshold”. For the same binder, the pKd (NHERF4_1, Q86UT5-2; [2]) was 4.71, the pKd (DLG5_1, Q8TDM6; [2]) was “below the threshold” and the pKd (GRASP, Q7Z6J2; [2]) was 5.28. For the same binder, the pKd (GRIP1_7, Q9Y3R0; [2]) was “below the threshold”, the pKd (LNX2_2, Q8N448; [2]) was “below the threshold” and the pKd (SNTB1, Q13884; [2]) was 5.41. For the same binder, the pKd (HTRA3, P83110; [2]) was “below the threshold”, the pKd (Inadl_5, Q8NI35; [2]) was “below the threshold” and the pKd (Inadl_3, Q8NI35; [2]) was 4.66. For the same binder, the pKd (MPP6, Q9NZW5; [2]) was “below the threshold” and the pKd (IL16_4, Q14005; [2]) was “below the threshold”.
